Results: the supplement of paper PMC10065799, “High-throughput profiling of sequence recognition by tyrosine kinases and SH2 domains using bacterial peptide display” (eLife, 2023)
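Also: 11-residue human phosphosite peptides and single-mutation variants displayed on the E. coli surface, counted by deep sequencing, each peptide's frequency after selection divided by its frequency in the unselected input library; frequency after pTyr selection over input frequency; kinase dosed for 20-30% of maximal phosphorylation in three min.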

The sequences below were run against Fes (UniProt P07332) (assay: phosphorylation enrichment, bacterial display (enrichment ratio); higher = better substrate or ligand; peptides without Tyr show the background).
Fes, sequence (P07332 whole entry, looked up): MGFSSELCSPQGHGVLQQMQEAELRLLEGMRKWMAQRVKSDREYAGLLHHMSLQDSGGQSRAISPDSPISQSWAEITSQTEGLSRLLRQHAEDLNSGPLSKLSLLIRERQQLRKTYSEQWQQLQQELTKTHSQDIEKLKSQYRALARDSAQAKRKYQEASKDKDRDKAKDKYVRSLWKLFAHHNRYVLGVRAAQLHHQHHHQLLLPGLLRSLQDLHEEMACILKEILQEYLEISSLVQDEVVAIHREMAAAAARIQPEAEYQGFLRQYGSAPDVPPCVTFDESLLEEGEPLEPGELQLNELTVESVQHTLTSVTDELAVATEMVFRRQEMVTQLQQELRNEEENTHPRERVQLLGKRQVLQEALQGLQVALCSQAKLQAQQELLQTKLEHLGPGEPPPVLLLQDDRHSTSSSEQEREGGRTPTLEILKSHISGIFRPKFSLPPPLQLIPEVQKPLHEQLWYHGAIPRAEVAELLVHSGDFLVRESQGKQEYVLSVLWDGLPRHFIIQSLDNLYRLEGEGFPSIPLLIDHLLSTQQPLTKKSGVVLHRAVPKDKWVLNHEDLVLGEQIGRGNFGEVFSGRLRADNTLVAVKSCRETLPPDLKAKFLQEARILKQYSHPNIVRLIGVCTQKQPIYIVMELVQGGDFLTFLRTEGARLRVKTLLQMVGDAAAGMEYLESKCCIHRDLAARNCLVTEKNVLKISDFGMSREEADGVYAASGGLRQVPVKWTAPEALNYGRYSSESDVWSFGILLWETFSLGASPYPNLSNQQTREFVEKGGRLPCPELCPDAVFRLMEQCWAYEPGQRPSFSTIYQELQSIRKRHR
Sequence VHHLVYHHHHH [CACNA1H_Y519] has a phosphorylation enrichment of 1.99.
With CLMILYRLKER [PTPRR_Y249] the phosphorylation enrichment was 1.23.
GKFFQYDTWKQ [IGF2_Y116] showed a phosphorylation enrichment of 0.852.
In the case of LSGFCYRLSDQ [PDCD6_Y124_G123C], the phosphorylation enrichment is reported as 1.46.
With NVFGNYNQQPS [HNRNPA2B1_Y306_D302V] the phosphorylation enrichment was 0.713.
CTLNVYRQLHN [LUZP1_Y1036_S1034N] gave a phosphorylation enrichment of 1.28.
VVTFSYKPPGN [RBL2_Y544] was tested, and the phosphorylation enrichment was 0.696.
In the case of SLLLSYYLIKW [NUP160_Y773_P768S], the phosphorylation enrichment is reported as 1.24.
Sequence LEPHIYAVADV [MYO9A_Y216] has a phosphorylation enrichment of 1.02.
KVALPYKPFFF [POLE_Y100_YF] was tested, and the phosphorylation enrichment was 0.855.
AGREIYESDKC [TTN_Y4424] gave a phosphorylation enrichment of 0.996.
Sequence PVFIKYLPEWT [PSEN1_Y240_L235P] has a phosphorylation enrichment of 1.68.
Work on KKLHKYNTQFQ [PIK3R1_Y452_E451K] yielded a phosphorylation enrichment of 0.909.
For LFDHIYTTQSD [RET_Y928], the phosphorylation enrichment was 3.19.
For DSFATYFRWVL [H2BW1_Y84_R87W], the phosphorylation enrichment was 1.47.
With FEKFLYFLPAS [DYNC2H1_Y346_H341Y_YF] the phosphorylation enrichment was 1.48.
With NQDRTYYERVR [SPEN_Y632_S635R] the phosphorylation enrichment was 0.639.
In the case of PLGKDYRKVEG [MAP1A_Y1909_A1912V], the phosphorylation enrichment is reported as 0.883.
For CRERPYGGGGG [FUS_Y526_R521C], the phosphorylation enrichment was 1.13.
QFNIQYSSSAA [ERBB2IP_Y981_YF] showed a phosphorylation enrichment of 1.31.
FADGVYLALEE [DUOX2_Y70_Q71L_YF] showed a phosphorylation enrichment of 1.04.
Work on AKQVGYENAGT [PC_Y304] yielded a phosphorylation enrichment of 0.614.
Work on YFVVEYRDQKP [MUC17_Y4332] yielded a phosphorylation enrichment of 1.66.
FAKTQYPDIFA [CRX_Y63_V66I_YF] gave a phosphorylation enrichment of 0.922.
EHAGEYGAEAL [HBA1_Y25_A20E] was tested, and the phosphorylation enrichment was 0.896.
In the case of RLCQDYDIIGP [ANK1_Y1073_T1075I], the phosphorylation enrichment is reported as 1.26.
With AAAAMYTFLPD [MYORG_Y36] the phosphorylation enrichment was 1.12.
RRESQYQENRG [LRCH3_Y354] showed a phosphorylation enrichment of 0.571.
Sequence CKQGKYLNWDA [ATM_Y54_S49C] has a phosphorylation enrichment of 0.839.
KGELRYMHSRV [ABCD1_Y281] was tested, and the phosphorylation enrichment was 0.746.
SFHCSYSEIKD [DCLRE1C_Y322_S320C] showed a phosphorylation enrichment of 1.21.
AAVDNYCRHNF [HLA-DRB1_Y107_T106N_YF] was tested, and the phosphorylation enrichment was 0.53.
RSFPSYYTSHV [NEFL_Y442] showed a phosphorylation enrichment of 1.05.

Each sequence was assayed against Hck (UniProt P08631) in the same assay as above.
Hck, sequence (P08631 whole entry, looked up): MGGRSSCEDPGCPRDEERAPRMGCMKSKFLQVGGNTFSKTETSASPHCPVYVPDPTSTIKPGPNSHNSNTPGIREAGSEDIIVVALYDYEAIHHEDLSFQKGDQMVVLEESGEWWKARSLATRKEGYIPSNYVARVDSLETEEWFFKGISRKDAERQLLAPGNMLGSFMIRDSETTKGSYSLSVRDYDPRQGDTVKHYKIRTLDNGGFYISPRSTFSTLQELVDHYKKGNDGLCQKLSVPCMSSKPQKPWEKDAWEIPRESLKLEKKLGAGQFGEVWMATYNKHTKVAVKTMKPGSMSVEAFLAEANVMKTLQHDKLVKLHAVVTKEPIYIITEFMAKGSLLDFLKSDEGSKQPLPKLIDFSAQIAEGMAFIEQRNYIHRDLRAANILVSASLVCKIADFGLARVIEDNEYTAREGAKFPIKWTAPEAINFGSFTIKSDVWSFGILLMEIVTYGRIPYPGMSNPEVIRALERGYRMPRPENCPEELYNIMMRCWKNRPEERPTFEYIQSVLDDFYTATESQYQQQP
For VHHLVYHHHHH [CACNA1H_Y519], the phosphorylation enrichment was 0.65.
With CLMILYRLKER [PTPRR_Y249] the phosphorylation enrichment was 0.494.
Sequence GKFFQYDTWKQ [IGF2_Y116] has a phosphorylation enrichment of 0.826.
Sequence LSGFCYRLSDQ [PDCD6_Y124_G123C] has a phosphorylation enrichment of 0.804.
With NVFGNYNQQPS [HNRNPA2B1_Y306_D302V] the phosphorylation enrichment was 0.484.
Work on CTLNVYRQLHN [LUZP1_Y1036_S1034N] yielded a phosphorylation enrichment of 0.551.
Work on VVTFSYKPPGN [RBL2_Y544] yielded a phosphorylation enrichment of 0.429.
In the case of SLLLSYYLIKW [NUP160_Y773_P768S], the phosphorylation enrichment is reported as 0.499.
In the case of LEPHIYAVADV [MYO9A_Y216], the phosphorylation enrichment is reported as 1.6.
KVALPYKPFFF [POLE_Y100_YF] gave a phosphorylation enrichment of 0.557.
AGREIYESDKC [TTN_Y4424] gave a phosphorylation enrichment of 0.523.
Sequence PVFIKYLPEWT [PSEN1_Y240_L235P] has a phosphorylation enrichment of 0.519.
KKLHKYNTQFQ [PIK3R1_Y452_E451K] was tested, and the phosphorylation enrichment was 0.425.
In the case of LFDHIYTTQSD [RET_Y928], the phosphorylation enrichment is reported as 5.93.
Work on DSFATYFRWVL [H2BW1_Y84_R87W] yielded a phosphorylation enrichment of 5.6.
FEKFLYFLPAS [DYNC2H1_Y346_H341Y_YF] was tested, and the phosphorylation enrichment was 0.884.
Sequence NQDRTYYERVR [SPEN_Y632_S635R] has a phosphorylation enrichment of 2.31.
Sequence PLGKDYRKVEG [MAP1A_Y1909_A1912V] has a phosphorylation enrichment of 0.513.
With CRERPYGGGGG [FUS_Y526_R521C] the phosphorylation enrichment was 0.481.
QFNIQYSSSAA [ERBB2IP_Y981_YF] was tested, and the phosphorylation enrichment was 0.673.
FADGVYLALEE [DUOX2_Y70_Q71L_YF] gave a phosphorylation enrichment of 1.51.
AKQVGYENAGT [PC_Y304] gave a phosphorylation enrichment of 0.464.
YFVVEYRDQKP [MUC17_Y4332] gave a phosphorylation enrichment of 0.589.
FAKTQYPDIFA [CRX_Y63_V66I_YF] was tested, and the phosphorylation enrichment was 0.387.
EHAGEYGAEAL [HBA1_Y25_A20E] was tested, and the phosphorylation enrichment was 0.592.
Work on RLCQDYDIIGP [ANK1_Y1073_T1075I] yielded a phosphorylation enrichment of 2.46.
Work on AAAAMYTFLPD [MYORG_Y36] yielded a phosphorylation enrichment of 4.23.
Work on RRESQYQENRG [LRCH3_Y354] yielded a phosphorylation enrichment of 0.503.
For CKQGKYLNWDA [ATM_Y54_S49C], the phosphorylation enrichment was 0.423.
With KGELRYMHSRV [ABCD1_Y281] the phosphorylation enrichment was 0.377.
For SFHCSYSEIKD [DCLRE1C_Y322_S320C], the phosphorylation enrichment was 0.568.
With AAVDNYCRHNF [HLA-DRB1_Y107_T106N_YF] the phosphorylation enrichment was 0.203.
In the case of RSFPSYYTSHV [NEFL_Y442], the phosphorylation enrichment is reported as 1.1.

Each sequence was assayed on c-Abl (mouse) in the same assay as above.
Sequence VHHLVYHHHHH [CACNA1H_Y519] has a phosphorylation enrichment of 0.963.
Work on CLMILYRLKER [PTPRR_Y249] yielded a phosphorylation enrichment of 0.576.
In the case of GKFFQYDTWKQ [IGF2_Y116], the phosphorylation enrichment is reported as 0.582.
LSGFCYRLSDQ [PDCD6_Y124_G123C] gave a phosphorylation enrichment of 1.34.
NVFGNYNQQPS [HNRNPA2B1_Y306_D302V] showed a phosphorylation enrichment of 0.674.
CTLNVYRQLHN [LUZP1_Y1036_S1034N] showed a phosphorylation enrichment of 0.739.
For VVTFSYKPPGN [RBL2_Y544], the phosphorylation enrichment was 0.673.
In the case of SLLLSYYLIKW [NUP160_Y773_P768S], the phosphorylation enrichment is reported as 0.882.
In the case of LEPHIYAVADV [MYO9A_Y216], the phosphorylation enrichment is reported as 14.1.
Work on KVALPYKPFFF [POLE_Y100_YF] yielded a phosphorylation enrichment of 0.656.
Sequence AGREIYESDKC [TTN_Y4424] has a phosphorylation enrichment of 0.616.
PVFIKYLPEWT [PSEN1_Y240_L235P] was tested, and the phosphorylation enrichment was 1.07.
With KKLHKYNTQFQ [PIK3R1_Y452_E451K] the phosphorylation enrichment was 1.06.
For LFDHIYTTQSD [RET_Y928], the phosphorylation enrichment was 0.821.
In the case of DSFATYFRWVL [H2BW1_Y84_R87W], the phosphorylation enrichment is reported as 1.04.
In the case of FEKFLYFLPAS [DYNC2H1_Y346_H341Y_YF], the phosphorylation enrichment is reported as 0.896.
NQDRTYYERVR [SPEN_Y632_S635R] was tested, and the phosphorylation enrichment was 0.525.
Sequence PLGKDYRKVEG [MAP1A_Y1909_A1912V] has a phosphorylation enrichment of 1.66.
CRERPYGGGGG [FUS_Y526_R521C] was tested, and the phosphorylation enrichment was 0.459.
For QFNIQYSSSAA [ERBB2IP_Y981_YF], the phosphorylation enrichment was 1.01.
FADGVYLALEE [DUOX2_Y70_Q71L_YF] gave a phosphorylation enrichment of 0.647.
Sequence AKQVGYENAGT [PC_Y304] has a phosphorylation enrichment of 0.447.
With YFVVEYRDQKP [MUC17_Y4332] the phosphorylation enrichment was 0.788.
FAKTQYPDIFA [CRX_Y63_V66I_YF] was tested, and the phosphorylation enrichment was 0.542.
In the case of EHAGEYGAEAL [HBA1_Y25_A20E], the phosphorylation enrichment is reported as 0.612.
Sequence RLCQDYDIIGP [ANK1_Y1073_T1075I] has a phosphorylation enrichment of 0.663.
With AAAAMYTFLPD [MYORG_Y36] the phosphorylation enrichment was 1.
Sequence RRESQYQENRG [LRCH3_Y354] has a phosphorylation enrichment of 0.73.
CKQGKYLNWDA [ATM_Y54_S49C] showed a phosphorylation enrichment of 0.605.
With KGELRYMHSRV [ABCD1_Y281] the phosphorylation enrichment was 0.517.
Work on SFHCSYSEIKD [DCLRE1C_Y322_S320C] yielded a phosphorylation enrichment of 0.873.
For AAVDNYCRHNF [HLA-DRB1_Y107_T106N_YF], the phosphorylation enrichment was 0.484.
In the case of RSFPSYYTSHV [NEFL_Y442], the phosphorylation enrichment is reported as 1.02.

These sequences were tested against Jak2 (UniProt O60674) in the same assay as above.
Jak2, sequence (O60674 whole entry, looked up): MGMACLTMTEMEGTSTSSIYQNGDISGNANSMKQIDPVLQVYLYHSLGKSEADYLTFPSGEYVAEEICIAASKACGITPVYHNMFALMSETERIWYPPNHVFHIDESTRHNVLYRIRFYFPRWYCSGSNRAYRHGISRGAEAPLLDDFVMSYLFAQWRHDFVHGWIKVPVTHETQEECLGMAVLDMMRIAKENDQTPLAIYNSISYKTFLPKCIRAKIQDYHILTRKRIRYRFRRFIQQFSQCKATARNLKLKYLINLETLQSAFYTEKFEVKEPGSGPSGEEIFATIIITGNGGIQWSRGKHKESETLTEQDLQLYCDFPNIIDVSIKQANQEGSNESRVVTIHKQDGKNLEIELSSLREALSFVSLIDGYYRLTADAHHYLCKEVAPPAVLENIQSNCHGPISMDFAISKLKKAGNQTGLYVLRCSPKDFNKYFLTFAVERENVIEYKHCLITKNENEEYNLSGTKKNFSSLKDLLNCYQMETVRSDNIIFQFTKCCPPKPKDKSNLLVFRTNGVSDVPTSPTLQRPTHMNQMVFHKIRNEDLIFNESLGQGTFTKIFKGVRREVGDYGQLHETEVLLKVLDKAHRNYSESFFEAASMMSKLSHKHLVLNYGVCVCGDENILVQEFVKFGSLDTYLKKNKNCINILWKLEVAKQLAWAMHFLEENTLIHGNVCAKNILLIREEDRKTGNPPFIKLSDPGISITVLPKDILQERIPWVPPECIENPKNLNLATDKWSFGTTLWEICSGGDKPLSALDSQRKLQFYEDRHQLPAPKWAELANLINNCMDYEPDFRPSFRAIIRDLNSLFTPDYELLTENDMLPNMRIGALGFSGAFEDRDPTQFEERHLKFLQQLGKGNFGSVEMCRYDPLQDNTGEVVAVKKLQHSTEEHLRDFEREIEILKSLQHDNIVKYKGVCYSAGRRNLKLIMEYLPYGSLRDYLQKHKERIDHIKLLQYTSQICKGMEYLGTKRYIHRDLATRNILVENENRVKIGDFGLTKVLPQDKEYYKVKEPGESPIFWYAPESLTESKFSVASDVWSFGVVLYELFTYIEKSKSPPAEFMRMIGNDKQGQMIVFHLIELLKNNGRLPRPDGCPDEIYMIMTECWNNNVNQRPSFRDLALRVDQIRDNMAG
Sequence VHHLVYHHHHH [CACNA1H_Y519] has a phosphorylation enrichment of 1.66.
Sequence CLMILYRLKER [PTPRR_Y249] has a phosphorylation enrichment of 0.997.
GKFFQYDTWKQ [IGF2_Y116] gave a phosphorylation enrichment of 0.601.
Sequence LSGFCYRLSDQ [PDCD6_Y124_G123C] has a phosphorylation enrichment of 1.53.
NVFGNYNQQPS [HNRNPA2B1_Y306_D302V] showed a phosphorylation enrichment of 0.687.
With CTLNVYRQLHN [LUZP1_Y1036_S1034N] the phosphorylation enrichment was 1.
VVTFSYKPPGN [RBL2_Y544] gave a phosphorylation enrichment of 0.911.
Work on SLLLSYYLIKW [NUP160_Y773_P768S] yielded a phosphorylation enrichment of 2.23.
With LEPHIYAVADV [MYO9A_Y216] the phosphorylation enrichment was 0.741.
For KVALPYKPFFF [POLE_Y100_YF], the phosphorylation enrichment was 0.674.
Sequence AGREIYESDKC [TTN_Y4424] has a phosphorylation enrichment of 0.731.
PVFIKYLPEWT [PSEN1_Y240_L235P] was tested, and the phosphorylation enrichment was 1.62.
KKLHKYNTQFQ [PIK3R1_Y452_E451K] showed a phosphorylation enrichment of 1.55.
Work on LFDHIYTTQSD [RET_Y928] yielded a phosphorylation enrichment of 1.81.
DSFATYFRWVL [H2BW1_Y84_R87W] showed a phosphorylation enrichment of 5.48.
Sequence FEKFLYFLPAS [DYNC2H1_Y346_H341Y_YF] has a phosphorylation enrichment of 2.67.
NQDRTYYERVR [SPEN_Y632_S635R] showed a phosphorylation enrichment of 0.499.
For PLGKDYRKVEG [MAP1A_Y1909_A1912V], the phosphorylation enrichment was 1.52.
CRERPYGGGGG [FUS_Y526_R521C] gave a phosphorylation enrichment of 0.587.
QFNIQYSSSAA [ERBB2IP_Y981_YF] was tested, and the phosphorylation enrichment was 0.935.
Work on FADGVYLALEE [DUOX2_Y70_Q71L_YF] yielded a phosphorylation enrichment of 0.968.
AKQVGYENAGT [PC_Y304] gave a phosphorylation enrichment of 0.467.
YFVVEYRDQKP [MUC17_Y4332] showed a phosphorylation enrichment of 3.02.
FAKTQYPDIFA [CRX_Y63_V66I_YF] showed a phosphorylation enrichment of 0.483.
EHAGEYGAEAL [HBA1_Y25_A20E] showed a phosphorylation enrichment of 0.693.
In the case of RLCQDYDIIGP [ANK1_Y1073_T1075I], the phosphorylation enrichment is reported as 1.17.
For AAAAMYTFLPD [MYORG_Y36], the phosphorylation enrichment was 1.31.
Sequence RRESQYQENRG [LRCH3_Y354] has a phosphorylation enrichment of 0.582.
CKQGKYLNWDA [ATM_Y54_S49C] showed a phosphorylation enrichment of 0.782.
KGELRYMHSRV [ABCD1_Y281] showed a phosphorylation enrichment of 0.618.
Sequence SFHCSYSEIKD [DCLRE1C_Y322_S320C] has a phosphorylation enrichment of 0.9.
Sequence AAVDNYCRHNF [HLA-DRB1_Y107_T106N_YF] has a phosphorylation enrichment of 0.928.
RSFPSYYTSHV [NEFL_Y442] gave a phosphorylation enrichment of 3.72.
